Experimental data from paper PMC3182218, “Obesity Risk Gene TMEM18 Encodes a Sequence-Specific DNA-Binding Protein”.

Molecular target: TMEM18 (UniProt Q96B42 1-140)
Assay: EMSA; 400 nM probe; EMSA: 10 mM Tris pH 7.4, 50 mM KCl, 1 mM DTT, 0.05% DDM, 30 min, RT; 4-20% TBE gel in 0.5x TBE
Conditions: protein: recombinant, tags: N-terminal Flag-His8, blunt

Sequence of TMEM18 (Q96B42 whole entry): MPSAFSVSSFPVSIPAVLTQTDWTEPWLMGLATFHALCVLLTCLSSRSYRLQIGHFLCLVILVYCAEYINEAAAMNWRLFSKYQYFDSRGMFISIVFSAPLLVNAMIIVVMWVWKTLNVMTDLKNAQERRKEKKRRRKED

B1: biotin-(GCT)8 (dsDNA)
DNA 1: GCTGCTGCTGCTGCTGCTGCTGCT
DNA 2: AGCAGCAGCAGCAGCAGCAGCAGC
label: 5' biotin on (GCT)8 strand
  binding result: binds

B2: biotin-(GTG)8 (dsDNA)
DNA 1: GTGGTGGTGGTGGTGGTGGTGGTG
DNA 2: CACCACCACCACCACCACCACCAC
label: 5' biotin on (GTG)8 strand
  binding result: no binding
